The values that follow come from publication PMC9025336 (Antibiotics, 2022).

As usually defined, the Kd is the free concentration of one partner at which half of the binding sites on the other are occupied at equilibrium, for simple one-to-one binding. Low readings indicate a tighter complex, high ones a looser complex. Broadly, the Ki is a dissociation constant, usually derived from enzyme kinetics or from competition with a known ligand.

Assay [1] has as its system E. coli Rosetta DE3 pLysS. Description: MIC, liquid broth microdilution. Type of assay: cell-based, Escherichia coli. The conditions noted are these: 25% MHBII medium, 7.5 × 10^6 CFU/mL, 37 °C, 20 ± 2 h, turbidity 600 nm, at least twice in triplicate. How it is done:
(§1) The minimal inhibitory concentrations (MIC) were determined at least twice in triplicate using a liquid broth microdilution assay in sterile 96-well plates and a total volume of 100 μL per well. Aqueous peptide solutions were serially 2-fold diluted in 25% MHBII or 33% TSB medium in a volume of 50 µL. An overnight culture was diluted in 25% MHBII or 33% TSB medium to 1.5 × 10^7 CFU/mL, and an aliquot of 50 μL was added to each well. The final cell count in each well was 7.5 × 10^6 CFU/mL. The plates were incubated at 37 °C for 20 ± 2 h. The turbidity of each well was measured at a wavelength of 600 nm. The MIC was defined as the lowest peptide concentration where the turbidity was identical to medium only.

In assay [2] the test system is E. coli BW25113. It is filed as cell-based, Escherichia coli. The conditions noted are these: BW25113, 2 h. The protocol: as §1, with “The plates were incubated at 37 °C for 20 ± 2 h.” left out
Assay [3] deals with 70S ribosome, ribosomal binding site of Api805. Description: Fluorescence polarization competition with cf-Api805. The conditions noted are these: Figure S2, twice in triplicate. Set-up: species or system Escherichia coli. How it is done: Ki was determined for ribosome extracts using cf-labeled and unlabeled peptides in ribosome preparation buffer. Black 384-well plates were prepared as described above. Unlabeled peptides or antibiotics (20 μL, 656 μmol/L) were added and 2-fold serially diluted in 23 wells in ribosome preparation buffer. […] The fluorescence polarization was measured on a […] microplate reader in the top read position (λexc = 485 nm, λem = 535 nm) in triplicate on at least two different days. […] Inhibition constants, Ki, were calculated as described by Mathias and Jung. page 9: 140 140 120 120 100 100 80 80 60 60 40 40 […]. […]. […] 0 0 -20 -20 10 -2 1 10 2 10 4 10 6 10 -2 1 10 2 10 4 10 6 Pept ide Concent r at ion [ nM] Pept ide Concent r at ion [ nM] 140 140 120 120 100 100 80 80 60 60 40 40 20 Chlor […] ol vs. […] -20 -20 10 -2 1 10 2 10 4 10 6 10 -2 1 10 2 10 4 10 6 Ant ibiot ic Concent r at ion [ nM] Antibiotic Concentration [nM] 140 120 100 80 60 40 […] -20 10 -2 1 10 2 10 4 10 6 Ant ibiot ic Concent r at ion [ nM] Figure S2. […] tested as control in competition with Api137 or erythromycin. Experiments were done twice in triplicates. Error bars show the standard deviation of all six replicates. The horizontal dotted line separates positive and negative ranges on the Y-axis. - S9 - (also on this page, place not known: […]
In general terms: In fluorescence polarisation assays a small probe gives low polarisation when free and higher when bound to something large.

In assay [4] the target is 70S ribosome extract of E. coli BW25113 (E. coli BW25113 (endogenous)). Briefly: fluorescence polarisation; 2-fold dilution series of the ribosome extract (23 steps) mixed with cf-labeled peptide (20 µL, 40 nmol/L) in ribosome preparation buffer (20 mmol/L Hepes-KOH, 6 mmol/L MgCl2, 30 mmol/L NH4Cl, pH 7.6); 28 ± 1 °C, 90 min; Kd = x0 of a dose-response fit.
Assay [5] addresses 70S ribosome extract of E. coli Rosetta DE3 pLysS (E. coli Rosetta DE3 pLysS (endogenous)). The assay is described as above.
Assay [6] has as its system 70S ribosome extract of E. coli BW25113. Description: Fluorescence polarization, Kd of cf-labeled peptides. The conditions noted are these: 70S ribosome, refers to Table 2. Type of assay: binding, Escherichia coli. How it is done: E. coli BW25113 and E. coli Rosetta pLysS were cultivated in LB medium and harvested at an OD600 of ~4 by centrifugation (5000× g, 30 min, 4 °C). The cell pellets were washed by resuspension in ribosome preparation buffer (20 mmol/L Hepes-KOH, 6 mmol/L MgCl2, 30 mmol/L NH4Cl, pH 7.6, 4°C) and subsequent centrifugation (5000× g, 30 min, 4 °C). Cell pellets were suspended in ribosome preparation buffer ([…]) containing freshly added 2-mercapotethanol (4 mmol/L). Lysozyme was added to the resuspended cells and incubated on ice for 30 min. The cell suspension was disrupted six times using a FastPrep-24^TM 5G instrument (MP Biomedicals, Solon, OH, USA) with BigPrep 50 mL setting (40 s, 4.0 m/s), incubated with DNase I (5 mL/L) on ice for one hour and centrifuged (16,000× g, 30 min, 4 °C). The cell debris was removed from the supernatant by centrifugation (32,000× g, 60 min, 4 °C), and the supernatant was centrifuged again (165,000× g, 17 h, 4 °C). The pellet was resuspended in ribosome preparation buffer (0.1 mL per g cell pellet) to obtain the 70S ribosome extract and stored at −80 °C. The ribosome concentration was estimated by recording the absorbance at 260 nm (1 AU for a ribosome concentration of 28 nmol/L). The molecular weight of the 70S E. coli ribosome was assumed to be 2.3 MDa.
Kd was determined using a ribosome extract and cf-labeled peptides in ribosome preparation buffer. Briefly, black 384-well plates (flat bottom, Greiner Bio-One GmbH) were blocked with casein (0.5%, w/v) in phosphate buffer containing 0.05% (v/v) Tween 20 at 4 °C overnight and washed three times with phosphate buffer. A 2-fold dilution series of the ribosome extract (20 μL per well) in ribosome preparation buffer was prepared in a black 384-well plate (23 dilution steps). The cf-labeled peptide was dissolved in ribosome preparation buffer (20 μL, 40 nmol/L), added to each well, and incubated at 28 ± 1 °C. After 90 min, the fluorescence polarization was measured on a PARADIGMTM microplate reader (Beckman Coulter, Salzburg, Austria) in the top read position (λexc = 485 nm, λem = 535 nm) in triplicate on at least two different days. Data were fitted to a nonlinear, dose–response logistical transition equation [y= y0 + a/(1 + (x/x0)b)] using the Levenberg–Marquardt algorithm, with dissociation constants (Kd) represented by the x0 coefficients (GraphPad Prism for Windows v. 5.02, San Diego, CA, USA).

The target of assay [7] is 70S ribosome extract of E. coli BW25113 (E. coli BW25113 (endogenous)). Briefly: fluorescence polarisation; competition: unlabeled peptide (2-fold series from 656 µmol/L) pre-incubated with BW25113 ribosome extract (28 °C, 90 min), then cf-Onc112 (10 µL, 80 nmol/L) added (28 °C, 90 min); ribosome preparation buffer; Ki calculated from IC50.
Assay [8] has the same target. Description: fluorescence polarisation; competition: unlabeled peptide (2-fold series from 656 µmol/L) pre-incubated with BW25113 ribosome extract (28 °C, 90 min), then cf-Api137 (10 µL, 80 nmol/L) added (28 °C, 90 min); ribosome preparation buffer; Ki calculated from IC50.

In brackets after ≈: the same amount, converted by molar mass. Square brackets hold non-standard residues; d marks the D form. Ends that are not written are not given here. Peptide text beside a SMILES is read from it.

As to `CC[C@H](C)[C@H](NC(=O)[C@@H]1CCCN1C(=O)[C@H](CCCNC(=N)N)NC(=O)[C@H](CC(N)=O)NC(=O)[C@H](CC(N)=O)NC(=O)CN)C(=O)N[C@@H](Cc1ccc(O)cc1)C(=O)N[C@H](C(=O)N1CCC[C@H]1C(=O)N[C@@H](CCCNC(=N)N)C(=O)N1CCC[C@H]1C(=O)N[C@@H](CCCNC(=N)N)C(=O)N1CCC[C@H]1C(=O)N1CCC[C@H]1C(=O)N[C@@H](Cc1c[nH]cn1)C(=O)N1CCC[C@H]1C(=O)N[C@@H](CCCNC(=N)N)C(=O)N[C@@H](CC(C)C)C(=O)O)[C@@H](C)CC` [Api801] (H-GNNRPIYIPRPRPPHPRL-OH), the “MIC, Ros” value in assay [1] is on record as 4 µg/mL (≈ 1.86 µM). The “MIC, BW” value in assay [2] is reported as 16 µg/mL (≈ 7.44 µM).

Turning to `O=C(N[C@H](CO)[C@H](O)c1ccc([N+](=O)[O-])cc1)C(Cl)Cl` [chloramphenicol], the “inhibition of the binding of cf-labeled Api805” value (“inhibition” for short) in assay [3] is given as “none inhibited”.

With `CC[C@H]1OC(=O)[C@H](C)[C@@H](O[C@H]2C[C@@](C)(OC)[C@@H](O)[C@H](C)O2)[C@H](C)[C@@H](O[C@@H]2O[C@H](C)C[C@H](N(C)C)[C@H]2O)[C@](C)(O)C[C@@H](C)C(=O)[C@H](C)[C@@H](O)[C@]1(C)O` [erythromycin], the “inhibition” value in assay [3] was “none inhibited”.

Turning to `NC[C@H]1O[C@H](O[C@H]2[C@H](O)[C@@H](O[C@H]3O[C@H](CO)[C@@H](O)[C@H](N)[C@H]3O)[C@H](N)C[C@@H]2N)[C@H](O)[C@@H](O)[C@@H]1O` [kanamycin], the “inhibition” value in assay [3] is recorded as “none inhibited”.

In assay [4], cf-Api88 (peptide) returned a Kd of 906 nM.

For the molecule cf-Api137 (peptide), the values for the Kd in assay [4] and in assay [5] were 382 nM and 198 nM, respectively.

As for “cf-Api805: Api805 labeled with 5(6)-carboxyfluorescein at the N-terminus ({5(6)‑carboxyfluorescein}-GNNRPIYIPRPRPPHPRPIRV-OH)”, the “Kd values of cf-labeled peptides, in words” value in assay [6] is recorded as “nanomolar range”.

With {5(6)‑carboxyfluorescein}-GNNRPIYIPRPRPPHPRPIRV-OH [cf-Api805], the equilibrium dissociation constant (Kd) in assay [4] was 557 nM; in assay [5], 515 nM.

In the case of GNNRPIYIPRPRPPHPRL-OH [Api801], the values for the Ki in assay [7] and in assay [8] were 247 nM and 2 nM, respectively.

On to {5(6)‑carboxyfluorescein}-VDKPPYLPRPRPPR[dR]IYN[dR]-NH2 [cf-Onc112], for which the Kd in assay [4] was 27 nM; in assay [5] it was 51 nM.

Take VDKPPYLPRPRPPR[dR]IYN[dR]-NH2 [Onc112]: the figures for the inhibition constant Ki in assay [7] and in assay [8] were 8 nM and 606 nM, respectively.
